Experimental findings from IntAct's records for PubMed 22653727 are described below.

The labels stand for the following.
B1: Circadian locomoter output cycles protein kaput (Mus musculus), O08785 (parent)
chain: MVFTVSCSKMSSIVDRDDSSIFDGLVEEDDKDKAKRVSRNKSEKKRRDQFNVLIKELGSMLPGNARKMDKSTVLQKSIDFLRKHKETTAQSDASEIRQDWKPTFLSNEEFTQLMLEALDGFFLAIMTDGSIIYVSESVTSLLEHLPSDLVDQSIFNFIPEGEHSEVYKILSTHLLESDSLTPEYLKSKNQLEFCCHMLRGTIDPKEPSTYEYVRFIGNFKSLTSVSTSTHNGFEGTIQRTHRPSYEDRVCFVATVRLATPQFIKEMCTVEEPNEEFTSRHSLEWKFLFLDHRAPPIIGYLPFEVLGTSGYDYYHVDDLENLAKCHEHLMQYGKGKSCYYRFLTKGQQWIWLQTHYYITYHQWNSRPEFIVCTHTVVSYAEVRAERRRELGIEESLPETAADKSQDSGSDNRINTVSLKEALERFDHSPTPSASSRSSRKSSHTAVSDPSSTPTKIPTDTSTPPRQHLPAHEKMTQRRSSFSSQSINSQSVGPSLTQPAMSQAANLPIPQGMSQFQFSAQLGAMQHLKDQLEQRTRMIEANIHRQQEELRKIQEQLQMVHGQGLQMFLQQSNPGLNFGSVQLSSGNSNIQQLTPVNMQGQVVPANQVQSGHISTGQHMIQQQTLQSTSTQQSQQSVMSGHSQQTSLPSQTPSTLTAPLYNTMVISQPAAGSMVQIPSSMPQNSTQSATVTTFTQDRQIRFSQGQQLVTKLVTAPVACGAVMVPSTMLMGQVVTAYPTFATQQQQAQTLSVTQQQQQQQQQPPQQQQQQQQSSQEQQLPSVQQPAQAQLGQPPQQFLQTSRLLHGNPSTQLILSAAFPLQQSTFPPSHHQQHQPQQQQQLPRHRTDSLTDPSKVQPQ

Details in all cases: with Bmal1, Q9WTL8-4
Bmal1, Q9WTL8-4, sequence (Q9WTL8 other isoform, or with tags, fused parts or gaps): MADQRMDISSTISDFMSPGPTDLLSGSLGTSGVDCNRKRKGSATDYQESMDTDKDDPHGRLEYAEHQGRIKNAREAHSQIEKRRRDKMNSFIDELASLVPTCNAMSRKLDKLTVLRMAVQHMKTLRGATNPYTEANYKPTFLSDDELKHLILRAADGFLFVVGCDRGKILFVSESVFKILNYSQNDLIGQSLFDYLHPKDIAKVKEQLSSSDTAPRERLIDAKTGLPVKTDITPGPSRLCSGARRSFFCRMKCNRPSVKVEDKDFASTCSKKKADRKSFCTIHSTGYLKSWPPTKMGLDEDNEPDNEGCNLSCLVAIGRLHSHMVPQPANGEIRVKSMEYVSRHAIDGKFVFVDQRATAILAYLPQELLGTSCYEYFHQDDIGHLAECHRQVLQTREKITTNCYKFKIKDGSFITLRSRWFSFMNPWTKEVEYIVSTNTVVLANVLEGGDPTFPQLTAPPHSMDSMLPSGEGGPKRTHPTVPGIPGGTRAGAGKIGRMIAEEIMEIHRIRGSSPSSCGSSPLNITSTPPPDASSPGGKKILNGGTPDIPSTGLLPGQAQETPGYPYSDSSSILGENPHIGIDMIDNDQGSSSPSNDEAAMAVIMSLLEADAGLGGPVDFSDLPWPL
In assay [1] the parent is B1.
Assay [2] covers variants of B1. This is another data set of the same source.
The variants in assay [3] derive from B1. This is another data set of the same source.

L57E: the “effect of a mutation on the interaction” value with Bmal1, Q9WTL8-4 [1] is “with no effect”; with Bmal1, Q9WTL8-4 [2] it was “decreasing interaction strength”. As to F122D, the “effect of a mutation on the interaction” value in the assay with Bmal1, Q9WTL8-4 [1] is given as “with no effect”. Take V315R: the “effect of a mutation on the interaction” value is recorded as “with no effect” in the assay with Bmal1, Q9WTL8-4 [1] and “decreasing interaction strength” in the assay with Bmal1, Q9WTL8-4 [2]. In the case of W284A, the “effect of a mutation on the interaction” value is on record as “disrupting interaction strength” with Bmal1, Q9WTL8-4 [1] and “decreasing interaction strength” in the assay with Bmal1, Q9WTL8-4 [3]. On to L57E;L113E;W284A, for which the “effect of a mutation on the interaction” value with Bmal1, Q9WTL8-4 [1] is “disrupting interaction strength”; with Bmal1, Q9WTL8-4 [2], “disrupting interaction strength”. Take L74E: the “effect of a mutation on the interaction” value was “disrupting interaction strength” with Bmal1, Q9WTL8-4 [1] and “decreasing interaction strength” with Bmal1, Q9WTL8-4 [2]. As to L113E, the “effect of a mutation on the interaction” value with Bmal1, Q9WTL8-4 [1] is recorded as “with no effect”.
